Measurements taken from the supplement of paper PMC9170038.

Test system: MS2 coat protein
Experiment: apparent KD of MS2 coat protein; designed switch direction (-1 OFF switch, 1 ON switch): -1; higher = weaker reporter binding
In short: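 Designed RNA switches with common flanks were transcribed on Illumina chips by stalled E. coli RNA polymerase and titrated with SNAP-549-labelled MS2 coat protein, from 0.7 or 1.5 nM doubling to 3 µM, in Tris-HCl pH 7.5 buffer with KCl, MgCl2, BSA, DTT, tRNA and Tween-20. Steps lasted 0.8–1.5 h (lowest) to 10–20 min (highest). Titrations ran without input, with 200 uM small-molecule ligand, or with an oligonucleotide input. Normalised cluster fluorescence was curve-fitted, and apparent KD is the per-design median over clusters.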

[1] = input ligand: microRNA oligo, concentration not stated
[2] = Eterna round: R95, input ligand: microRNA oligo, concentration not stated
[3] = Eterna round: R95, input ligand: FMN 200 uM
[4] = Eterna round: R95, input ligand: none

AUAAAACGAGGAUAUGCUGGGCUUCUGUGAUGCAUAUGCUCACAUGAGGAUCACCCAUGUAGAAGGUGUAAAAU [Laaceve] (Eterna round: R96, puzzle: Exclusion 2)
apparent KD of MS2 coat protein (input ligand: FMN 200 uM): 389 nM | apparent KD of MS2 coat protein [1]: 221 nM | apparent KD of MS2 coat protein (input ligand: none): 331 nM

AUAAAACGAGGAUAUGCUGGGCUUCUGUGAUGCAUAUGCUCACAUGAGGAUCACCCAUGUAGAAGGUGUAAAAU [Laaceve] (puzzle: Exclusion 2)
apparent KD of MS2 coat protein [2]: 220 nM

AUAAAAUGCCAAGGAUAUCGGAAAGGAAGUGUACGAGAAGGUGGAGAUCCUAUACAUGAGGAUCACCCAUGUAUCAAGCUUGGG [PowerStrip EXNG 1.10] (Eterna round: R96, puzzle: Exclusion NG 1)
apparent KD of MS2 coat protein (input ligand: FMN 200 uM): 692 nM | apparent KD of MS2 coat protein [1]: 510 nM | apparent KD of MS2 coat protein (input ligand: none): 760 nM

AUAAAUCAUGUAGGAUAUGCGUGGCGAAGCUAUGCAGAAGGACAUGAGGAUCACCCAUGUCUUUCCGUCUGCGUACAGACGGAA [Mat - Exclusion NG 1 - Mod of JL - D41] (Eterna round: R96, puzzle: Exclusion NG 1)
apparent KD of MS2 coat protein (input ligand: FMN 200 uM): 289 nM | apparent KD of MS2 coat protein [1]: 23.6 nM | apparent KD of MS2 coat protein (input ligand: none): 24.5 nM

AUAAUAAAGGAGGAUAUCGUAACGGAAACGUUACGAGAAGGUCUAACAUGAGGAUCACCCAUGUUCCUCAAAUA [Mat - Exclusion 6 - Eli Mod - D50] (puzzle: Exclusion 6)
apparent KD of MS2 coat protein [3]: 47.8 nM | apparent KD of MS2 coat protein [2]: 35.4 nM | apparent KD of MS2 coat protein [4]: 47 nM

AUAAUGUAAGGAUAUCAGUCGACUAGCCUCGGCUAGUCGACUGAGAAGGUACAUGAGGAUCACCCAUGUGUUUC [E4/12-A3] (Eterna round: R97, puzzle: Exclusion 4)
apparent KD of MS2 coat protein (input ligand: FMN 200 uM): 244 nM | apparent KD of MS2 coat protein (input ligand: none): 35.6 nM

AUAAUGUGAGGAUAUCGAGACUACUGCCUCGGCAGUAGUCUCGAGAAGGCACAUGAGGAUCACCCAUGUGAUCA [E4/2-A2] (Eterna round: R97, puzzle: Exclusion 4)
apparent KD of MS2 coat protein (input ligand: FMN 200 uM): 79 nM | apparent KD of MS2 coat protein (input ligand: none): 1190 nM

AUACCACGAGGAUAUCGUCUAUUCCACAUGAGGAUCACCCAUGUUAUCCAUGUUUCGUUUCGAGAAGGCGUGGGUU [JR_E5_Sub074] (Eterna round: R96, puzzle: Exclusion 5)
apparent KD of MS2 coat protein (input ligand: FMN 200 uM): 50.8 nM | apparent KD of MS2 coat protein [1]: 38.2 nM | apparent KD of MS2 coat protein (input ligand: none): 51.6 nM

AUACCACGAGGAUAUCGUCUAUUCCACAUGAGGAUCACCCAUGUUAUCCAUGUUUCGUUUCGAGAAGGCGUGGGUU [JR_E5_Sub074] (puzzle: Exclusion 5)
apparent KD of MS2 coat protein [2]: 45.9 nM

AUACCAUGCCGCCUAAUAGCUUUUUGCCCGUCUUAUAAAACAUGAGGAUCACCCAUGUAAAACUCGUGGCGUGACCC [Quarre] (puzzle: Sensor v3, turn-off variant 2)
apparent KD of MS2 coat protein [3]: 156 nM | apparent KD of MS2 coat protein [2]: 21.9 nM | apparent KD of MS2 coat protein [4]: 195 nM

AUAGGCCGAGGAUAUGUAGCUAUGAACAUGAGGAUCACCCAUGUGAGUGUCGUGCGUAUUAUAGAAGGCGGUGCAU [EX5 B.14] (Eterna round: R97, puzzle: Exclusion 5)
apparent KD of MS2 coat protein (input ligand: FMN 200 uM): 17 nM | apparent KD of MS2 coat protein (input ligand: none): 16.1 nM

AUAUAAACAUAGGAUAUCGAAUUUAUCAUUUAACGAGAAGGAUGAACAUGAGGAUCACCCAUGUGGUAUCAUGG [Mat - Exclusion 6 - JL Mod - D5] (puzzle: Exclusion 6)
apparent KD of MS2 coat protein [3]: 553 nM | apparent KD of MS2 coat protein [2]: 333 nM | apparent KD of MS2 coat protein [4]: 340 nM

AUAUAGUGAGGAUAUACAUGAGGAUCACCCAUGUGGUAGUAGAUACAGUAGAGAUAGAGUAGAAGGCACGAUGA [EX3 #26] (Eterna round: R97, puzzle: Exclusion 3)
apparent KD of MS2 coat protein (input ligand: FMN 200 uM): 197 nM | apparent KD of MS2 coat protein (input ligand: none): 68 nM

AUAUAGUGAGGAUAUCCAAUAUAUGACAUGAGGAUCACCCAUGUUUCCACUCGUACCUCCGGAGAAGGCACAUUUU [Ex5 #65] (Eterna round: R97, puzzle: Exclusion 5)
apparent KD of MS2 coat protein (input ligand: FMN 200 uM): 27.2 nM | apparent KD of MS2 coat protein (input ligand: none): 27.6 nM

AUAUUAACAUAGGAUAUCGAAUAAAUUAUUUAACGAGAAGGAUGAACAUGAGGAUCACCCAUGUGGUAUCAUGG [Mat - Exclusion 6 - JL Mod - D29] (puzzle: Exclusion 6)
apparent KD of MS2 coat protein [3]: 153 nM | apparent KD of MS2 coat protein [2]: 236 nM | apparent KD of MS2 coat protein [4]: 411 nM

AUCAGCUCGUGAGGAUAUGAACAUGAGGAUCACCCAUGUAAGAUCAAGCUGCUUCGGCAGCAAGUUCAGAAGGCACGAGCUGAU [ENG2/10-A3] (Eterna round: R96, puzzle: Exclusion NG 2)
apparent KD of MS2 coat protein (input ligand: FMN 200 uM): 182 nM | apparent KD of MS2 coat protein [1]: 84 nM | apparent KD of MS2 coat protein (input ligand: none): 156 nM

AUCAGCUCGUGAGGAUAUGCACAUGAGGAUCACCCAUGUAAGAUCAAGCUGCUUCGGCAGCAAGUGCAGAAGGCACGAGCUGAU [ENG2/9-A2] (Eterna round: R96, puzzle: Exclusion NG 2)
apparent KD of MS2 coat protein (input ligand: FMN 200 uM): 186 nM | apparent KD of MS2 coat protein [1]: 132 nM | apparent KD of MS2 coat protein (input ligand: none): 182 nM

AUCAUGUAAGGAUAUCGUGCAAGUUUCAAAAGAGGCUUGUGCGAGAAGGUACAUGAGGAUCACCCAUGUAGGUU [Omei Ex4 B10] (Eterna round: R97, puzzle: Exclusion 4)
apparent KD of MS2 coat protein (input ligand: FMN 200 uM): 57.8 nM | apparent KD of MS2 coat protein (input ligand: none): 584 nM

AUCAUGUAAGGAUAUCUGACAUGUGACUUCGGUCACUGUUCAGAGAAGGUACAUGAGGAUCACCCAUGUAGAAC [Ex4-3: 44] (puzzle: Exclusion 4)
apparent KD of MS2 coat protein [2]: 59.6 nM

AUCAUGUCAGGAUAUCUGAUAUGGAUCUUCGGAUCAAGUUCAGAGAAGGGACAUGAGGAUCACCCAUGUCGAAC [Ex4-3: 31] (puzzle: Exclusion 4)
apparent KD of MS2 coat protein [2]: 25.6 nM

AUCCUGAGGCUUUGCUUUAGGCGUACAUGAGGAUCACCCAUGUAGGAUAUGGUAGGCUUUGCUUACCAGAAGGACAUUAUGAUC [JL EXNG3 1.19] (Eterna round: R96, puzzle: Exclusion NG 3)
apparent KD of MS2 coat protein (input ligand: FMN 200 uM): 243 nM | apparent KD of MS2 coat protein [1]: 44.1 nM | apparent KD of MS2 coat protein (input ligand: none): 43 nM

AUCGUGAAGAAGGAUAUGGGCCCGGUAAAACGACUAGAAGGUCUGACAUGAGGAUCACCCAUGUGAUACCAAAA [Veve] (puzzle: Exclusion 6)
apparent KD of MS2 coat protein [3]: 34.1 nM | apparent KD of MS2 coat protein [2]: 42.9 nM | apparent KD of MS2 coat protein [4]: 35.3 nM

AUCGUGCAGCUUUGCUGUACGAGUACAUGAGGAUCACCCAUGUAGGAUAUGGUACGCUUUGCGUGCUAGAAGGAUAUGAGUAGG [EX ENG3 1.42] (Eterna round: R96, puzzle: Exclusion NG 3)
apparent KD of MS2 coat protein (input ligand: FMN 200 uM): 84.3 nM | apparent KD of MS2 coat protein [1]: 43 nM | apparent KD of MS2 coat protein (input ligand: none): 48.3 nM

AUCUCUCGUGUUAGGAUAUCCAGUUAGUUCGUGCGGGAGAAGGAACAUGAGGAUCACCCAUGUAAACAAAUCGC [BmEX4 B.21] (Eterna round: R97, puzzle: Brourd's mod of Exclusion 4)
apparent KD of MS2 coat protein (input ligand: FMN 200 uM): 52.1 nM | apparent KD of MS2 coat protein (input ligand: none): 18.5 nM

AUGAAGUAAGGAUAUUAUCGCGGGCAGAGGCCCAGCUCAUAUGAGAAGGUACAUGAGGAUCACCCAUGUCCUCU [Eternabot (L2) Solution 72] (Eterna round: R97, puzzle: Exclusion 4)
apparent KD of MS2 coat protein (input ligand: FMN 200 uM): 25.9 nM | apparent KD of MS2 coat protein (input ligand: none): 30 nM

AUGAGCAGACGGAGAUCCAACAUGAGGAUCACCCAUGUCUCAAAAGCUUUUUGCUCAUCUUAUUGUACCUUGGUGCU [Mat - Sensor v3 - turn-off var 1 - JL Mod - D16] (puzzle: Sensor v3, turn-off variant 1)
apparent KD of MS2 coat protein [3]: 167 nM | apparent KD of MS2 coat protein [2]: 13.2 nM | apparent KD of MS2 coat protein [4]: 194 nM

AUGAGGUGAGGAUAUACGAGAUGAUAUUGCAGAGCAAGUCAGUAGAAGGCACAUGAGGAUCACCCAUGUUCGGG [Eternabot (L2) Solution 93] (Eterna round: R97, puzzle: Exclusion 4)
apparent KD of MS2 coat protein (input ligand: FMN 200 uM): 269 nM | apparent KD of MS2 coat protein (input ligand: none): 397 nM

AUGCGACAUGAGGAUCACCCAUGUGAGGAUAUGCGAAUGCAUACUUCGGUGUGAUAGAGCAGAAGGCGCAGGUA [EX1 #16] (Eterna round: R97, puzzle: Exclusion 1)
apparent KD of MS2 coat protein (input ligand: FMN 200 uM): 560 nM | apparent KD of MS2 coat protein (input ligand: none): 831 nM

AUGCGACAUGAGGAUCACCCAUGUGAGGAUAUGCGAAUGCAUACUUCGGUGUGAUAGAGUAGAAGGCGCAGGUA [EX1 #17] (Eterna round: R97, puzzle: Exclusion 1)
apparent KD of MS2 coat protein (input ligand: FMN 200 uM): 472 nM | apparent KD of MS2 coat protein (input ligand: none): 761 nM

AUGCGUGGCUAGGAUAUCGAGGAAUUUAGCCAGCGAGAAGGAGCCACAUGAGGAUCACCCAUGUGGUGAACCUC [jl-ex6-4.62 ViennaUCT mod] (Eterna round: R97, puzzle: Exclusion 6)
apparent KD of MS2 coat protein (input ligand: FMN 200 uM): 41.1 nM | apparent KD of MS2 coat protein (input ligand: none): 10.2 nM

AUGCGUGGCUAGGAUAUCGAGGAAUUUAGCCAGCGAGAAGGAGCCACAUGAGGAUCACCCAUGUGGUGAACCUU [jl-ex6-4.64 ViennaUCT mod] (Eterna round: R97, puzzle: Exclusion 6)
apparent KD of MS2 coat protein (input ligand: FMN 200 uM): 14.5 nM | apparent KD of MS2 coat protein (input ligand: none): 15.8 nM

AUGCGUGGCUAGGAUAUUGAGGAAUUUAGCCAGCAAGAAGGAGCCACAUGAGGAUCACCCAUGUGGUGAACCUC [jl-ex6-4.61 ViennaUCT mod] (Eterna round: R97, puzzle: Exclusion 6)
apparent KD of MS2 coat protein (input ligand: FMN 200 uM): 13.2 nM | apparent KD of MS2 coat protein (input ligand: none): 30.6 nM

AUGCUCCGUGUAGGAUAUCGCCGCACCACCCGGCGAGAAGGACAUGAGGAUCACCCAUGUAUGUUAUUAUCACGUGUGGCGCGC [Design 42] (Eterna round: R96, puzzle: Exclusion NG 1)
apparent KD of MS2 coat protein (input ligand: FMN 200 uM): 17.2 nM | apparent KD of MS2 coat protein [1]: 12.3 nM | apparent KD of MS2 coat protein (input ligand: none): 13.6 nM

AUGCUCCGUGUAGGAUAUCGCCGCAUCACUCGGCGAGAAGGACAUGAGGAUCACCCAUGUAUGUUAUUAUCACGUGUGGCGCGC [Design 44] (Eterna round: R96, puzzle: Exclusion NG 1)
apparent KD of MS2 coat protein (input ligand: FMN 200 uM): 52.3 nM | apparent KD of MS2 coat protein [1]: 16.7 nM | apparent KD of MS2 coat protein (input ligand: none): 25.3 nM
